Patent publication US20200347130A1 (JIANGSU HENGRUI MEDICINE, published 2020)

Key:
Assay in all cases: peptide ELISA, peptide coated
[1] = molecular target: T1, CD96 epitope peptide #8 (122-141) (human)
T1 peptide: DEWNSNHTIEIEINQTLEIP
Method: (§1) The epitopes recognized by anti-CD96 antibody were detected by the assay of binding the antibody to different polypeptide fragments of CD96 protein. The fragments of different polypeptides of the CD96 antigen were coated on the microtiter plate. The signal density after the antibody was added was used to judge the binding activity of the antibody and the polypeptide. The specific experimental method is as follows:
(§2) The polypeptides were diluted to a concentration of 20 μg/ml with PBS buffer (Shanghai Yuanpei Biotechnology Co., Ltd. Cat No. B320), pH 7.4, added to a 96-well microtiter plate (Corning, Cat No. CLS3590-100EA) at a volume of 50 μl/well, and coated at 4° C. overnight. After discarding the liquid, 250 μl/well of 5% skim milk (BD skim milk, Cat No. 232100) blocking solution diluted with PBS was added, and the plate was incubated in an incubator at 37° C. for 3 hours. After blocking, the blocking solution was discarded, and the plate was washed 5 times with PBST buffer (pH 7.4 PBS containing 0.05% tween-20). 50 μl/well of different concentrations of the antibodies to be tested (hybridoma purification antibody or humanized antibody) diluted with sample dilution was added, and the plate was incubated in an incubator at 37° C. for 2 hours. […] After washing the plate 5 times with PBST, 50 μl/well of TMB chromogenic substrate (KPL, Cat No. 52-00-03) was added, the plate was incubated at room temperature for 5-15 min, followed by adding 50 μl/well of 1M H₂SO₄ to stop the reaction. The absorption value was read at 450 nm with a microplate reader (Thermo Scientific MuLtiskan MK3), and the epitopes that CD96 antibody can recognize were analyzed.

[2] = molecular target: T2, CD96 epitope peptide #21 (310-329) (human)
T2 peptide: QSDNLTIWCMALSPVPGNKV
Method: as §1, §2

[3] = molecular target: T3, CD96 epitope peptide #9 (137-156) (human)
T3 peptide: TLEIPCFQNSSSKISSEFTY
Method: as §1, §2

[4] = molecular target: T4, CD96 epitope peptide #6 (92-111) (human)
T4 peptide: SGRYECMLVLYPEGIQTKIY
Method: as §1, §2

[5] = molecular target: T5, CD96 epitope peptide #13 (196-215) (human)
T5 peptide: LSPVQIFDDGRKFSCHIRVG
Method: as §1, §2

[6] = molecular target: T6, CD96 epitope peptide #19 (280-299) (human)
T6 peptide: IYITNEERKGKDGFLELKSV
Method: as §1, §2

[7] = molecular target: T7, CD96 epitope peptide #20 (295-314) (human)
T7 peptide: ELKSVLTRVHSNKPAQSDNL
Method: as §1, §2

[8] = molecular target: T8, CD96 epitope peptide #16 (235-254) (human)
T8 peptide: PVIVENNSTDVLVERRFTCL
Method: as §1, §2

binding result [1]: binds
binding result [2]: binds
binding result [3]: binds
binding result [4]: binds
binding result [5]: binds
binding result [6]: binds
binding result [7]: binds
binding result [8]: binds
B1: ch1718 (antibody, human IgG4 S228P, kappa, V domains shown)
VH: EFQLQQSGPELVKPGASVKISCKASAYSITDYNMNWVKQSNGKSLEWIGVINPSYGITDYNQNFKDKATLTVDQSSSTAYMQLNSLTSEDSAVYYCAIQLRLPGYFDVWGTGTTVIVSS
VL: DIKMTQSPSSMYASLGERVTITCKASQDINNYLNWFQQKPGKSPKTLIYRANRLVDGVPSRFSGSGSGQDYSLTISSLEYEDMGIYYCLKYDEFPYTFGGGTKVEIKR
notes: also called chimeric antibody corresponding to m1718
